Biological target: T1, MBP-ZCCHC8^91–211-(GS)3-eYFP (human, UniProt Q6NZY4 91-211)
T1 chain: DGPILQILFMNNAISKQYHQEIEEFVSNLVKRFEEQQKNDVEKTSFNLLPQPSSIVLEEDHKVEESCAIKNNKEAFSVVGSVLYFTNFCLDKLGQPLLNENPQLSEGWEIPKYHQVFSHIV
Experiment: MST

Kd: 327 nM
B1: MTR4-KOW (domain or fragment)
chain: HKPKYCLPFLQPGRLVKVKNEGDDFGWGVVVNFSKKSNVKPNSGELDPLYVVEVLLRCSKESLKNSATEAAKPAKPDEKGEMQVVPVLVHLLSAISSVRLYIPKDLRPVDNRQSVLKSIQEVQKRFPDGIPLLDPIDDMGIQD

From publication PMC6662825 (2019)
